Assay results reported in patent US20260209311A1, “MODIFIED G PROTEIN COUPLED RECEPTOR AND USE THEREOF” (ALPHELIX BIOTECH CO., LTD., priority 2023, published 2026).

Columns and labels:
MC4R WT [1] = assay: SPR; 1:1 kinetic, 25 C
MC4R WT [2] = assay: SPR; steady state affinity, 25 C

In the case of a-MSH, the Kd (MC4R WT [1]) is reported as 155 nM and the Kd (MC4R WT [2]) is reported as 313 nM.

Substance SHU 9119 has a Kd (MC4R WT [1]) of 0.00837 nM and a Kd (MC4R WT [2]) of 5.74 nM.

Setmelanotide gave a Kd (MC4R WT [1]) of 35.3 nM and a Kd (MC4R WT [2]) of 9.72 nM.
